US20050272649A1, “Conjoint administration of morphogens and ACE inhibitors in treatment of chronic renal failure” (priority 2002, published 2005)
Values joined by “and” are separate entries in the source; they are usually repeats but may differ in a detail not shown here. Equal entries are not always repeated. “Also recorded” adds a separate entry of the source. Where two headings read alike, the source gives them in different places.

Key:
[1] = test system: rat remnant kidney model (5/6 NPX); test: rat partial (5/6) nephrectomy chronic renal failure injury model; type: in vivo
Text: A rat partial (5/6) nephrectomy or rat remnant kidney model (RRKM) model was employed essentially as described (Vukicevic, et al. (1987) J. Bone Mineral Res. 2: 533, the entire content of which is incorporated herein by reference). Male Munich-Wistar rats (2-3 months old, weighing about 200-250 g) were subjected to renal mass ablation. Specifically, the right kidney is excised in conjunction with selective ligation of the left renal artery branches such that one third of the kidney remains perfused (5/6 NPX, see FIG. 12). Immediately following surgery, plasma creatinine and BUN levels rise dramatically due to the loss of renal mass and function. Over the next several weeks of this “acute” failure phase, plasma creatinine and BUN levels of surviving animals decline somewhat toward normal values but remain elevated. Renal function then appears to remain relatively constant or stable for a period of variable duration. After this point, the animals enter a period of chronic renal failure in which there is an essentially linear decline in renal function ending in death. For these reasons, animals are given 4 weeks of recovery prior to initiation of treatments.
Four weeks after nephrectomy, rats were divided into four treatment groups (see Table III), namely OP-1 (150 μg/kg body weight, 3×/week, by i.p. injection), Vehicle (20 mM arginine/150 mM NaCl, 0.1% Tween-80, pH 9.0, 1 ml/kg body weight, 3×/week, by i.p. injection), enalapril (100 mg/L in drinking water, 8-16 mg/kg body weight), and OP-1 with enalapril. For the first two groups (OP-1 and Vehicle), animals were sacrificed 14 weeks after nephrectomy. For the last two groups (enalapril, and OP-1 with enalapril), animals were sacrificed 26 weeks after nephrectomy. As surgical controls, rats were subjected to a “sham” operation in which the kidneys were decapsulated but no renal tissue was removed. Sham-treated animals were sacrificed 26 weeks after operation. None of the rats died in any group during this study. Systolic blood pressure, urine protein and/or glomerulosclerosis were monitored at intervals between 4 and 26 weeks post surgery.

[2] = test system: unilateral ureteral ligation in Sprague-Dawley rats; settings: cited from earlier work; for interstitial inflammation, fibrogenesis / renal (tubulointerstitial) fibrosis: OP-1 100 or 300 μg/kg, first 5 days after obstruction, compared with enalapril
[3] = test system: streptozotocin diabetic Sprague-Dawley rats; type: in vivo; settings: for Protein Ex (mg/day), urine protein excretion / kidney weight: at 32 weeks; for Mortality: deaths/animals; for GFR (ml/min/100 g bw): inulin clearance at 32 weeks; for prevalence of sclerotic glomeruli (glomerulosclerosis): DM vehicle 10.7±4.0%
Description: A long-term streptozotocin model of diabetic nephropathy was used to test and compare the therapeutic actions of BMP-7 with those of Enalapril. The study design was a treatment protocol beginning at 16 weeks when glomerular hypertrophy and proteinuria were established. The effects of therapy with BMP-7 (10, 30, or 100 μg/kg iv, biw) were compared to a maximal dose of Enalapril (20 mg/kg) and to a vehicle control. […] The GFR of 32 week diabetic Enalapril treated rats was 0.58±0.06 (not significant compared to vehicle treated and sham injected rats 0.55±0.02).
Animals: Female Sprague-Dawley rats 10 weeks of age weighing 190-220 g were used. Animals were allowed free access to standard rat chow and to tap water. Diabetes mellitus was induced by a single tail-vein injection of Streptozotocin (STZ 62 mg/kg of body weight, Sigma chemical company, St. Louis, Mo.) dissolved in normal saline at day 0. The diabetic state was confirmed 72 hours later by the determination of blood glucose concentration>300 mg/dl. From day 3, all the diabetic rats received daily subcutaneous injections of 1.0-7.0 u human recombinant long-acting insulin injection (Eli Lilly & Co., Indianapolis, Ind.) as required to maintain the blood glucose concentration between 300-500 mg/dl. Tail blood glucose levels were measured twice a week with an Accu—Chek™ Advantage meter (Roche Diagnostic Corporation, Indianapolis, Ind.). Body weights were taken once a week. Food and water intake were monitored daily.
Renal hypertrophy was well developed at 16 weeks prior to treatment with vehicle, BMP-7, or enalapril. […], animals were divided into 8 groups. Group 1 were 16 weeks of DM. Group 2 were 16 weeks normal controls. Group 3 DM animals were treated with tail-vein injection of vehicle twice a week for 16 weeks. Group 4, Group 5, and Group 6 were DM animals treated with tail-vein injections of BMP-7 100, 30, and 10 μg/kg body weight respectively twice a week for 16 weeks. Group 7 were treated with Enalapril 20 mg/kg through the drinking water for 16 weeks. […] Group 1 and Group 2 animals were sacrificed at 16 weeks. The others were sacrificed at 32 weeks. All treatments began at 16 weeks and continued through 32 weeks. Glomerular filtration rate (GFR), urine albumin excretion, kidney weight, glomerular area, mesangial matrix area, interstitial volume, monocyte and macrophage infiltration, thickness of glomerular basement membrane (GBM) and glomerulosclerosis were measured.
Renal Function: In all animals, glomerular filtration rate (GFR) was measured as the clearance of inulin. Rats were anesthetized with a Ketamine/Xylozine cocktail. A catheter was inserted into the femoral vein under a dissecting microscope for infusion. Another catheter was placed into the femoral artery for collecting blood samples. Urine was collected by bladder cannulation.
After the completion of surgery, a bolus of 2 ml/kg of 3% inulin (Cypros Pharmaceutical Corp, W. Carlsbad, Calif.) and 0.2% p-aminohippurate (PAH) in normal saline was infused as a priming load, followed by a sustaining infusion of the same solution at the rate of 8 ml/h·kg. Urine collection was initiated for three 20-minute collection periods after an hour of equilibration. An arterial blood sample was obtained during each clearance period. Plasma and urine were analyzed for inulin.
Urine volume was measured and urinary protein concentration was determined with a Bio-Rad protein assay.
Preparation of Kidneys: After the clearance studies, the rats were euthanized. Both kidneys were rapidly removed and placed in ice-cold phosphate buffered saline (PBS). Kidneys were weighed and then sliced on a cold glass plate. Two 2 mm coronal sections were immersed in Histochoice and in 10% buffered formalin. Kidney sections were embedded in paraffin and cut at 3 μm and stained with hematoxylin and eosin, Gomori's Trichrome and periodic acid Schiff (PAS).
Renal Morphology: The morphometric analysis was done in a blind manner. […]

[4] = summary of the nephrectomy model
[5] = BMP-7 10 μg/kg iv twice a week, weeks 16-32
[6] = BMP-7 10 μg/kg iv twice a week, weeks 16-32, listed as BMP
[7] = BMP-7 30 μg/kg iv twice a week, weeks 16-32
[8] = BMP-7 30 μg/kg iv twice a week, weeks 16-32, listed as BMP
[9] = BMP-7 100 μg/kg iv twice a week (high dose), weeks 16-32
[10] = BMP-7 100 μg/kg iv twice a week (high dose), weeks 16-32, listed as BMP
[11] = BMP-7 100 μg/kg iv twice a week, weeks 16-32

B1: OP-1: osteogenic protein-1 (OP-1, also known as BMP-7), morphogen of the OP/BMP family; OP-1 used interchangeably with sBMP-7 (protein)
chain: STGSKQRSQNRSKTPKNQEALRMANVAENSSSDQRQACKKHELYVSFRDLGWQDWIIAPEGYAAYYCEGECAFPLNSYMNATNHAIVQTLVHFINPETVPKPCCAPTQLNAISVLYFDDSSNVILKKYRNMVVRACGCH
- blood pressure level ([1]; OP-1 150 μg/kg i.p. 3×/week from 4 weeks after nephrectomy, to 14 weeks): did not dramatically lower the blood pressure level
- glomerular filtration rate [1, 4]: improves glomerular filtration rate
- glomerulosclerosis [1, 4]: reduces glomerulosclerosis
- interstitial inflammation, fibrogenesis / renal (tubulointerstitial) fibrosis [2]: prevented interstitial inflammation and fibrogenesis; also recorded: more effective in preventing tubulointerstitial fibrosis and in preserving renal function; also recorded: reduces renal fibrosis
- interstitial inflammation, fibrogenesis / renal (tubulointerstitial) fibrosis ([2]; listed as OP-1/BMP-7): Inhibits renal fibrosis
- epithelial cell apoptosis produced by UUO ([2]; UUO rats): blocked the stimulation of epithelial cell apoptosis
- tubular atrophy ([2]; UUO rats): prevention of tubular atrophy; also recorded: reduces tubular atrophy
- tubular epithelial disruption ([2]; UUO rats): inhibited tubular epithelial disruption
- renal blood flow (RBF) ([2]; during UUO): preserved renal blood flow
- renal BMP-7 expression (in situ hybridization) ([3]; 32 weeks): restored BMP-7 expression at high levels in the collecting duct; also recorded: restored BMP-7 expression in its normal pattern at high levels; also recorded: restored the normal distribution of BMP-7 expression
- renal Wnt4 expression (in situ hybridization) ([3]; 32 weeks): without affecting Wnt4 expression; also recorded: do not affect Wnt4 expression; also recorded: had no effect on Wnt4 expression
- Cause-Mortality unknown ([3]; BMP-7 10 μg/kg iv twice a week): 2/9
- Protein Ex (mg/day), urine protein excretion [3, 5]: 59.46 ± 21.84 mg/day
- kidney weight [3, 5]: 1.19 ± 0.03 g
- Protein Ex (mg/day), urine protein excretion [3, 6]: 59.46 ± 21.84 mg/day
- kidney weight [3, 6]: 1.19 ± 0.03 g
- Mortality [3, 5]: 2/9
- GFR (ml/min/100 g bw) [3, 5]: 0.59±0.07 ml/min/100 g bw
- GFR (ml/min/100 g bw) [3, 6]: 0.59 ± 0.07 ml/min/100 g bw
- prevalence of sclerotic glomeruli (glomerulosclerosis) ([3]; BMP-7 10 μg/kg, weeks 16-32): 4.1±1.4%
- Cause-Mortality anesthesia ([3]; BMP-7 30 μg/kg iv twice a week): 1/9
- Protein Ex (mg/day), urine protein excretion [3, 7]: 33.02 ± 9.11 mg/day
- kidney weight [3, 7]: 1.19 ± 0.03 g
- Protein Ex (mg/day), urine protein excretion [3, 8]: 33.02 ± 9.11 mg/day
- kidney weight [3, 8]: 1.19 ± 0.03 g
- Mortality [3, 7]: 1/9
- GFR (ml/min/100 g bw) [3, 7]: 0.61±0.09 ml/min/100 g bw and 0.62±0.09 ml/min/100 g bw
- GFR (ml/min/100 g bw) [3, 8]: 0.62 ± 0.09 ml/min/100 g bw
- prevalence of sclerotic glomeruli (glomerulosclerosis) ([3]; BMP-7 30 μg/kg, weeks 16-32): 3.5±0.8%
- Cause-Mortality hypoglycemia ([3]; BMP-7 100 μg/kg iv twice a week): 1/10
- kidney weight [3, 9]: 1.10 ± 0.03 g
- kidney weight [3, 10]: 1.10 ± 0.03 g
- GFR (ml/min/100 g bw) [3, 9]: 0.7±0.08 ml/min/100 g bw
- GFR (ml/min/100 g bw) [3, 10]: 0.70 ± 0.08 ml/min/100 g bw
- Protein Ex (mg/day), urine protein excretion [3, 11]: 14.27 ± 3.50 mg/day
- Protein Ex (mg/day), urine protein excretion ([3]; BMP-7 100 μg/kg iv twice a week, weeks 16-32, listed as BMP): 14.27 ± 3.50 mg/day
- Mortality [3, 11]: 1/10
- prevalence of sclerotic glomeruli (glomerulosclerosis) ([3]; BMP-7 100 μg/kg, weeks 16-32): 2.1±0.3%
- cortical interstitial area / volume ([3]; BMP-7 high dose (100 μg/kg), weeks 16-32, DM vehicle 13.1±0.7%): 10.7±0.3%
- monocyte/macrophage tubulointerstitial infiltration ([3]; ED-1 positive cells, 32 weeks): decreased the tubulointerstitial infiltration
- mesangial matrix accumulation (in words) ([3]; PAS / Trichrome histology at 32 weeks): dose dependent reduction in the accumulation of mesangial matrix; also recorded: more effective than Enalapril; also recorded: greater mesangial matrix accumulation than the two higher doses
- glomerular area / glomerular hypertrophy (in words) ([3]; treatment weeks 16-32): significantly decreased; also recorded: partially reversed glomerular hypertrophy; also recorded: equally effective
- glomerulosclerosis (in words) ([3]; treatment weeks 16-32): prevented by BMP-7 therapy more effectively than by Enalapril; also recorded: prevented the development of glomerulosclerosis; also recorded: markedly reduced; also recorded: prevented the development of glomerular sclerosis; also recorded: more effective than Enalapril; also recorded: decreased glomerular sclerosis; also recorded: significantly better than that of Enalapril
- interstitial volume (in words) ([3]; treatment weeks 16-32): significantly decreased; also recorded: reversed the increase in the expanded interstitial volume; also recorded: equally effective
- systolic blood pressure (tail artery cuff) ([3]; treatment weeks 16-32): did not effect blood pressure until the final four weeks of therapy; also recorded: had no effect on blood pressure until after 28 weeks; also recorded: blood pressures were normalized; also recorded: did not affect blood pressure until late in the course of the study; also recorded: did not affect blood pressure until the last four weeks of therapy
- urine protein excretion / proteinuria / albuminuria (in words) ([3]; treatment weeks 16-32): reversed to normal; also recorded: more effective in reversing proteinuria; also recorded: dose dependently eliminated proteinuria; also recorded: more effective than Enalapril
- GFR (in words) ([3]; treatment weeks 16-32, versus vehicle-treated diabetic and normal rats): normal or greater; also recorded: restored glomerular filtration rate to normal; also recorded: more effective than Enalapril; also recorded: restored GFR to normal or slightly above normal
- kidney weight / renal hypertrophy (in words) ([3]; treatment weeks 16-32, versus vehicle-treated diabetic rats): equal in partially reversing kidney hypertrophy; also recorded: partially reversed diabetic renal hypertrophy; also recorded: partially restored kidney weights towards normal; also recorded: equally effective
